Experimental findings from paper PMC3269530 (Journal of Molecular Biology, 2011) are described below.

In series [1] the test system is ArfA (S302 amide proton, β3-α4 loop). Kind of series: Saturation transfer difference NMR. The series is classed as binding, M. tuberculosis.
In series [2] the target is ArfA-c. The format is binding, M. tuberculosis.
Series [3] concerns the target ArfA-c (Mycobacterium tuberculosis, UniProt P9WIU5). Kind of series: biochemical. The format is binding.
The format of series [4] is binding, Mycobacterium tuberculosis, strain H37Rv. The conditions noted are these: qualitative.

Regarding “uridine-5'-diphosphate–MurNAc–L-Ala–D-γ-Glu–m-DAP–D-Ala– D-Ala [UMDP]”, the “proximity of S302 amide proton to MurNAc methyl protons” value in series [1] is given as “in some proximity”. Further, the Kd (usually the free concentration of one partner at which half of the binding sites on the other are occupied at equilibrium, for simple one-to-one binding) at ArfA-c [2] is ~1000 µM.
On to `CC(=O)N[C@H]1C(OP(=O)(O)OP(=O)(O)OC[C@H]2O[C@@H](n3ccc(=O)[nH]c3=O)[C@H](O)[C@@H]2O)O[C@H](CO)[C@@H](O)[C@@H]1O[C@H](C)C(=O)N[C@@H](C)C(=O)N[C@H](CCC(=O)N[C@@H](CCCCN)C(=O)N[C@H](C)C(=O)N[C@H](C)C(=O)O)C(=O)O` (stereo partly drawn) [UMKP, uridine-5'-diphosphate–MurNAc–L-Ala–D-γ-Glu–L-Lys–D-Ala–D-Ala], for which the “effect on the NMR spectrum of ArfA-c” value in the series on ArfA-c [2] was “no effect”.
For the molecule `CC(=O)N[C@H]1[C@@H](OP(=O)(O)OP(=O)(O)OC[C@H]2O[C@@H](n3ccc(=O)[nH]c3=O)[C@H](O)[C@@H]2O)O[C@H](CO)[C@@H](O)[C@@H]1O[C@H](C)C(=O)N[C@@H](C)C(=O)N[C@H](CCC(=O)N[C@@H](CCC[C@@H](N)C(=O)O)C(=O)N[C@H](C)C(=O)N[C@H](C)C(=O)O)C(=O)O` [UMDP, uridine-5'-diphosphate–MurNAc–L-Ala–D-γ-Glu–m-DAP–D-Ala–D-Ala (Park's nucleotide)], the Kd on ArfA-c [3] was ~1000 µM.

B1: ArfA-bc: joint B and C domains of ArfA, residues 73–326 (protein)
chain: GASALSLSLLSISRSGNTVTLIGDFPDEAAKAALMTALNGLLAPGVNVIDQIHVDPVVRSLDFSSAEPVFTASVPIPDFGLKVERDTVTLTGTAPSSEHKDAVKRAATSTWPDMKIVNNIEVTGQAPPGPPASGPCADLQSAINAVTGGPIAFGNDGASLIPADYEILNRVADKLKACPDARVTINGYTDNTGSEGINIPLSAQRAKIVADYLVARGVAGDHIATVGLGSVNPIASNATPEGRAKNRRVEIVVN
In the case of B1, the “stabilization provided by the disulfide bond” value (GSSG vs DTT, Sypro orange DSF, Fig. 2a) is “about 1 °C”.

B2: ArfA-c: C domain of M. tuberculosis ArfA (Rv0899), residues 196–326 (protein)
chain: GQAPPGPPASGPCADLQSAINAVTGGPIAFGNDGASLIPADYEILNRVADKLKACPDARVTINGYTDNTGSEGINIPLSAQRAKIVADYLVARGVAGDHIATVGLGSVNPIASNATPEGRAKNRRVEIVVN
Regarding B2, the “affinity for polymeric M. tuberculosis peptidoglycan” value in series [4] is “strong (enough to precipitate the protein)”. In addition, the “temperature of thermal unfolding, pH 4” value (pH4, 15 µM protein, Sypro orange, 20-95°C, 0.03°C per second, Fig. 2d) amounted to 65.0 °C. For the setting “pH7, 15 µM protein, Sypro orange, 20-95°C, 0.03°C per second, Fig. 2d”, the “temperature of thermal unfolding, pH 7” value was 63.2 °C. Moreover, the “increase in temperature of thermal unfolding on lowering pH from 7 to 4” value (pH 7 to 4, Sypro orange DSF, Fig. 2d) came out at 2 °C.
